# A protein production outcome set (Wang et al. 2014)
# Test: label from the status in PepcDB records
row,Sequence,protein production
1,MNDDLSWMLDSALEIPGALHAVLISADGLLMARTQDFDKDDADRVAAAMSGVQSLSRTLAFFCEDPSQTWRQTLVEFDGGWVFLISAGEGAYLGVSASPEVDMADITFRMQQLVAQLGKRLTTPPRENLGARS,failed
2,MNDDVEFRYADFLFKNNNYAEAIEVFNKLEAKKYNSPYIYNRRAVCYYELAKYDLAQKDIETYFSKVNATKAKSADFEYYGKILMKKGQDSLAIQQYQAAVDRDTTRLDMYGQIGSYFYNKGNFPLAIQYMSKQIRPTTTDPKVFYELGQAYYYNKEYVKADSSFVKVLELKPNIYIGYLWRARANAAQDPDTKQGLAKPYYEKLIEVCAPGGAKYKDELIEANEYIAYYYTINRDKVKADAAWKNILALDPTNKKAIDGLKMKLEHHHHHH,not failed
3,MNDLTKGKPLKLIFWFTIPLLIGNIFQQFYSLSDTLIVGQTLGVKALAAVGSTGSVQFLIIGFAQGLTAGLSILTAQHFGARDFKAVRRSFAISIVVSLIVGIILTILSLIFVDHILLLMQTPTDIIADARTFLQIMLGGMLAPIAFNLLSNIIRALGDSRTPLWFLIISALINIGLELLFILVFKWGIAGASWATILAQTIATLMCVVYIIVKVPILHIGRRHFKLVWSEVKAHLNVGLPMAFQMSIIAIGTIVLQAALNSLGTNSVAATTAAQKIDQVATQPLMSFGVTMATFAAQNYGAHQYERIITGVKQTMWLSGSFSVAAGLIEIIWGKQLVGFFVGHQDMAVLNLSQTYFNVIGSTYILLSMLFIMRNTLQGLGRSAIPTLAGAAELFMRVFAALILVRIFDYAGACSSEPLAWLGSCAVLLPAYIKSVHDLRQQARMTNTVAEGAEPILNDSEKL,failed
4,MNDLVESLIYEVNNMQQNFENVKSQQQDHDFYQTVKPYTEHIDSILNEIKLHREFIIEVPYMNSRKFELLIANIEQLSVECHFKRTSRKLFIEKLKSVQYDLQNILDGVTKEGTDG,not failed
5,MNDQVRLHYETWVYPRYPLAASVRRSDTYALSLDALYARFNGTLPPAAARRILLAGCGSFSPYPTAVANPGVPVTALDLSAANLRRARLHAWMHGRFGISFEQGDLMDPAAAQGEYGFIDSFGVIHHLADPLAGLRALERRLAPGGILRLMVYSRGARRVVESARRALRFAGVRDVARLKDLLRRSPPGSRLSHAVEASGEGGGDAGLADALLHPRARIFSIDELMAMVGETGLVPLRFAHSRALAEPGAEVVRLRGLEQAGEPVPNFVLYLGREPRGGCGLAPDALLMLNPALRHDVGVLRLAPLAVPPRLGLKNPVLGFADRRFLRRFSTPLPVSALTPTDRERVGPFLDALFVIPFR,failed
6,MNDRVIQNSRQGERVLAALSYFSIFFAPIILPIFIWIFADRPTSNHAAKSLAYHIITYIGPILLILSIGFGGVLINNSSTITSVIMITVAIILFVITVWYTIKNIYRGVRVLISEHAYFHP,failed
7,MNEDLAVIVYTSGTTGNPKGVMITYENIKTNMEGVRAVDLVTETDVILAMLPYHHIMPLCFTLILPMYMGVPIVLLTEISSASLLKALQENRVTVILGVPRVWEMLDKAIMTKINQSSLAKFMFKMASKINSMSIRKMLFSKVHKQFGGNIRLMVSGGAKIDKNILEDFRTMGFCAIQGYGMTETAPIITFNVPGRERSDSAGLEHHHHHH,failed
8,MNEEQRKSTSIDILAERDKKTKDYSKYFEHVYQPPSLKEARKRGKEEVNYNDDFQIDEKYRNMGQGKTFLIKTYGCQMNAHDTEVMAGILGALGYTPTEDINHADVILINTCAIRENAENKVFSEIGNLKHLKKEKPETVIGVCGCMSQEESVVNKILKSYQNVDMIFGTHNIHRLPEILEEAYLSKAMVVEVWSKEGDVIENLPKVREGNIKAWVNIMYGCDKFCTYCIVPFTRGKERSRRPEDIIDEVRDLARQGYKEITLLGQNVNAYGKDIDGLAYGLGDLLEDISKIDIPRVRFTTSHPWDFTDRMIEVIANGGNIVPHVHLPVQSGNNAVLKIMGRKYTRESYLDLVNRIKTHIPNVALTTDIIVGYPNETDEQFEETLTLYDEVEFEHAYTYIYSQRDGTPAAKMNDNVPLDVKKDRLQQLNKKVACYSERAMQQYEGQTVQVLCEGVSKKDDTVLSGYTSKNKLVNFKAPKSMIGKIVNVYIDEAKQFSLNGTFISVNDKTVVTQLEHHHHHH,not failed
9,MNEILHWKRNFFLLALGRFVSILGSSVQAVAIPLFVLDLTHSGSAVALMTVAYMVPRILFTPIAGIVGDRGDRKFLMVSMDFLRGFLICFLALLAFRNSITLPVLYVSQIAMAIMDNLFDIPTGAMFPDIVPQDFLMRANSIMGMVRIFPQILGPALGGVIYGFYGIAIVFLVNGVSFVLSAISEIFIVYSRKVEKKPAKFSQILEDLKEGFLFIWNHELIRTILIFALFLNLLISPLFMVVYPYTIREVMKFSAQEFGFLETSFTLGALLGNFLIASYLSKKNMWKAMKISIFLFELPIVFLGFLVMPDFSLNRLVLFSLFFITFLIMGFLNPIINVPLDTAFQKMTPSHIRARAFSFLILVANGVTPLGSVLYGYLVDRVPVHFLYYVVGALSFLVAVLLLVALRGKELPT,failed
10,MNEKIEQAIREMGFKNFTEVQSKTIPLMLQGKNVVVRAKTGSGKTAAYAIPILELGMKSLVVTPTRELTRQVASHIRDIGRYMDTKVAEVYGGMPYKAQINRVRNADIVVATPGRLLDLWSKGVIDLSSFEIVIIDEADLMFEMGFIDDIKIILAQTSNRKITGLFSATIPEEIRKVVKDFITNYEEIEACIGLANVEHKFVHVKDDWRSKVQALRENKDKGVIVFVRTRNRVAKLVRLFDNAIELRGDLPQSVRNRNIDAFREGEYDMLITTDVASRGLDIPLVEKVINFDAPQDLRTYIHRIGRTGRMGRKGEAITFILNEYWLEKEVKKVSQKA,not failed
11,MNEKIVREQRGGEDSPSSVSAKSATAAASASTASMTFASAALESHKTTTITTASSSPRTSGASASASSSSRSASAPASSSSQQEKQPMLNATDMRELREIKQLLWGDNVREDVFKRWSQGFEFSKVEPSALVQKQGGPCAVIAPVQAYLLKIIIMDLPGIKLSEISLDKSQNLLIQALCDILKNCRAPRYRIVHLLRRRGNATEAGSTKKRSPAGEEESALAGQAAGSSEEVEEAAEATPASVSKLSQALQLEHDMHQELSPDEFHERLHTLHFKNIAAVARYYMENYDQLAHTYGVLLFMYSVFLTKGLELVAADISDTSEPLIHSTYGYGGQSLINLMLTGRAVAHVWDNEQDVGGLKLRGICEQSDIGFITLMEEMRYCTVGSFFKNPRYPVWVMGSDTHLTVLFSNEKRLVSPETPSETGRRIFKSYDPEGNNFISTTMLREVLIALNLVSEPAYVALMQKRLDPENLGIILLNAFMDEFFPLESRSTPDTFELMHYNGIPGSNENNKVRYYCGTAILLEGDLKSVCTSNPMVTCLQTKWPNIEINWHDGHMPSLN,failed
12,MNEKTINEQYAYIRTLLEEKRLKEALMQLESLLWQCPDWDLRTRLEQLQTSYKYMLEYMRQGANDPERWNVYRKLIADTWEIADRSRLLMLDNASSRYYHEVRRTPRPESLSAYTLKKLLHMLESFNDDLAVSGLLSDEKMDEVLKRHEETLKYMFLQTWTNSAWTPEEEEDAQSMLTSELLPVNDLCLFISAVTLSLMECFDLRKIMWLLDAYRHPDVNAGQRALVGVIFIFHIYKNRLSLYNDLVKRVDLMDEISPFKEDVARIYHQMLLCQETEKIDKKMREEIIPEMLKNVSSMRNMRFGFEENEDENDDKNPDWADAFEQSGLGDKLREMNELQLEGADVYMSTFAALKSYPFFREVQNWFYPFSKQQSDVIKQLKQEGNEKNTLLDLILQSGFFSNSDKYSLFFTIRQLPKAQQDMMLSQLGEQQVAELTEKSSAETMKKFNERPGTVSNQYLHDLYRFFKLSVRRHEFRDIFKEKLDLHHIPALSNVLYSEDILFPIADFYLKKERWNEAIEVYEEMETIGALQERGAEYYQKLGYALQKSKKYAEAIGAYLKADTLKPDNIWNNRHLAICYRLNRNYQAALSYYKKVEEATPEDTNVIFHIGSCLAELGQYEEAANYFFKLDFIESNCIKAWRGIGWCSFISRKYEQAMKYYEKIIEQKPLAIDYMNAGHVAWTMGDIQKAAALYGKSITANGNRERFLEMFRKDEEALLKQGIQEEDIPLMLDLL,failed
13,MNEKTLHLDKKSAVVGGLNLSQTKIFGTPLPLFLFLLLTVLAAHFTDTLPSGLVGGFAFMFVIGAIFGEVGKRLPIFNKYIGGAPVMIFLVAAWFVHMGWLSDREIKTVTEVMDKSKFLDLFIAVLITGSILAVNRKLLIRSLAGYIPTILAAVAGAAVFGIAIGLVFGITPDRIMMLYVLPIMGGGNGAGAIPLSEIYESVTGGSKEQYYSVAIAILTIANIVAIVAAAVINIIGEKIPSLTGNGELVRSSKLDVSEEAKNLTVTHREIAIGLMLAACVYTFSYALSKEILPGFGSIQIHTFAYMVVIIAILNAAGLCSDEIKEGAKRLSNFFSKQMLWLLMVGVGIAYTDLAEIINALTFANVIIATVIVLGAIIGAALGGWAMGFYPVEASITAGLCMANRGGSGDLEVLAASNRMSLLSYAQISSRLGGGIVLVIASVVFGMFV,failed
14,MNELILLRQLAENQQYPSLLELAQSLWYDSGNPAVLPLLATANAHMGLKENTQALYQQSLKHFDVLDVDARCDLAVVLIVMQRIDDAIKMLSDILMEQGNHALALARLAYCYLASGRLAEAQHFFEKSLIITPERFIVHRNLVAVYIAQNELNQAQKQLDSATEVLVNYHKVGDPLYQQYWFQLNTTQLQLWVVQGLFCPAEEWLTQLSVRQQAGDYDEAVLVQYVKSYSQVLAEKNFHQQATNILREYLKQYNNNVELCMALAELAQVQGHFMQAISLLQKALKKDEGNSDLWVQLSTACLHRFDKKARKAAVRAVSLAEALEITDEQSLVLIKMKQAQANNALAEVECQEQNFEVSEKLYRDILAEHSHFLPALQGLGQQQMQQGNIDEAVALFERIKDIDLLKGCSALINVRRFPDDVEALDKMAIAANKPSMEGSLRAGILFQLAAAWEKKKDYNKAFRFAEQANNASKKFLSYNAQKHREDCARLRACFNKTLYQHRPNYGIESTIPVYVLGMPRSGTTLVEQILSGHSDIFGAGELGVIPQVIQGINRWERHTGSGRQYPDCIDDFNADTIAGIANNMLKELQELAAETKPESKYVVDKMPHNFENIGLIKFLFPNAKIISVRRDPRDIAMSNYFTDYQAKHGGMGFAYDLEHIGEQLADHNLLMHHWQQTFPDEILEINYEDVVDDIEGCARKMLSYIGVNWQPKVLKFNELVRTVKTASVWQVRQPIYKTSKGKWLRYQTRLTPLIKGTNAKIVSHPITDLLTLPEPGFLTDGVALYKEGKLDDAEMCFKKMLHHNPGHAACHYMIGLVYLTKNHAQDGIRHFEKAVASCPWQKEWRQNLLKAYEQEGETNKIAAFKKGNQRTTANDANNAVTYDEHFTSDAFTTKTTVSQ,failed
15,MNENEQKAGSVADQKSKIRERYKGIDPDELDVIPALPQEDIFAVENEQRVAVYARVSTDDPRQTSSYELQKNHYHDVISKSPNWKLVQIYADEGISGTSLQHRDQFKLMIEDCKKGQIDLIVTKSVSRFARNVVDCIGYVRELLSLPHPVGVFFETERLNTFDPKSEMVLSFMATLAQEESHTKSEIMNASIEMRFRRGIFLTPILLGYDHDEDGNLIINEGEAKIVKLIFMMYLNGCTCQEIADTLTELGCETKKGNTVWSPGSILQILQNERHCGDVLAHKTYTPNYLNHKSKKNMQNRPQYRKRDHHEAIISRDDFIAVQRLISNAKYGNKGILPQLKVIPGGVLKGFVSINPRWAGFKETDYMNASSSVYDGTEQSGPSSGHVEVKSGEFDLRGYEIARSQFFDSTDRITVTFSQGDIRFSAPAVRKLDSTLVELLIHPKKLVFAVRNAGKDCRNAMQWSKKKDGKNSPREISGTAFLPTLYSLLGWNDDCRYRITGVKRGSGNDAVLLFNLSEPEIFIPNDMVGAPDADPAVKPFTDNQQRNVRAYPPDWADTFGSNYYSHAQAEELAGFTGRKDPDTSHAPVTYNDTDIQVTSKNDIEKNIKQIMSDMKENTDEHTDKR,failed
16,MNEQPNNETLIQSSSRDLQIIEDDAFSYEGYQVVRGEFFAHTYEPSFTFNANKVSVNTACIKKLPKTDFVQILVNPDEKKLAVRPCQEDEKDSFRWCSATKKRSPRQITCRIFFAKVITLMGWNSSYRYKLLGKLIRSDNELLFVFDLTTPEIYVRTAKDDGKIKTSRTPTYPAEWQNQFGVPVEEHQSNLQINMFDGYAVFGISENTPPEEPKNPAEPQKEETHYEQSSLFTANPMH,failed
